Source: the supplement of paper PMC10724198

Key:
Saccharomyces cerevisiae [1] = assay: protein stability index of tFT-peptide fusion in wild type (PSI (0-1 scale)); higher = more stable (slower turnover); settings: genetic background: wild type
Procedure: (§1)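 MPS profiling in S. cerevisiae of two library types built from selected 12-aa C-degron peptides (IN1, IN2, LN1, LN3, VN2, R1-R5, W1-W3, Atg1 and Rpa12 C-termini): saturation mutagenesis libraries and C-terminal +1 capping libraries (13 aa). Each peptide is fused to the C-terminus of a sfGFP-mCherry timer, after a GGGS linker. Cells are FACS-sorted into 8 mCherry/sfGFP bins and sequenced. PSI runs from 0 (unstable) to 1 (stable), measured once in wild type and in the das1Δ or doa10Δ background.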

Saccharomyces cerevisiae [2] = assay: protein stability index of tFT-peptide fusion in deletion strain of DAS1 (PSI (0-1 scale)); higher = more stable (slower turnover)
Procedure: as §1
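Wherever protein stability index of tFT-peptide fusion in deletion strain of DAS1 is given: PSI is a weighted mean of each variant's read distribution over the sorted stability bins, computed only for variants having over 10 reads in total.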
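Wherever protein stability index of tFT-peptide fusion in wild type is given: PSI derived as read-weighted mean over the 8 sorting bins, only variants exceeding 10 total reads kept, mCherry placed adjacent to the peptide and sfGFP distal.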

Row | Sequence | protein stability index (Saccharomyces cerevisiae [1]) | protein stability index (Saccharomyces cerevisiae [2])
1 | LVVYLSCVACIH | 0.0123 | 0.0535
2 | PSLSASFWRVVG | 0.176 | 0.692
3 | LVVYLSCVAGIN | 0.13 | 0.154
4 | FSMCWTFRYWVN | 0.0491 | 0.412
5 | FSMDWTFRYWVN | 0.0547 | 0.543
6 | WVVYLSCVACIN | 0.0879 | 0.0589
7 | PSLAASFPRVVG | 0.659 | 0.66
8 | RLIQPYPVQFLN | 0.0613 | 0.578
9 | RLIQPLPVTFLN | 0.0559 | 0.7
10 | LVVYLSCVANIN | 0.0173 | 0.0788
11 | KKHGKGQKQKIN | 0.0862 | 0.707
12 | CTSCGCKFRTNN | 0.543 | 0.694
13 | KKHKKLQKQKIN | 0.054 | 0.602
14 | FTMRWTFRYWVN | 0.0324 | 0.428
15 | LIILRQKMNHQN | 0.152 | 0.661
16 | KKHKKGAKQKIN | 0.0819 | 0.608
17 | LSLAASFWRVVG | 0.129 | 0.664
18 | HKHKKGQKQKIN | 0.114 | 0.604
19 | KKHKKGQKQKINE | 0.635 | 0.662
20 | LVVYLSCVADIN | 0.108 | 0.168
21 | LVVYLSCSACIN | 0.0177 | 0.0361
22 | PDKRNHLIKLYN | 0.343 | 0.599
23 | FSMRWTFRYWVNG | 0.431 | 0.537
24 | LVVVLSCVACIN | 0.0126 | 0.0377

Row | Sequence | protein stability index (Saccharomyces cerevisiae [1]) | protein stability index (Saccharomyces cerevisiae [2])
25 | PVKRNHLIKLLN | 0.129 | 0.608
26 | VRGAVVGWRLVG | 0.141 | 0.66
27 | LKILRQKMIHQN | 0.196 | 0.682
28 | LKIYRQKMNHQN | 0.182 | 0.689
29 | RLIQGLPVQFLN | 0.0788 | 0.651
30 | PSIAASFWRVVG | 0.143 | 0.695
31 | LVVYLSCVACDN | 0.249 | 0.272
32 | FSMIWTFRYWVN | 0.0367 | 0.301
33 | LVVYLSEVACIN | 0.264 | 0.286
34 | LKILRKKMNHQN | 0.224 | 0.662
35 | RFIQPLPVQFLN | 0.0529 | 0.54
36 | KKHKKGQFQKIN | 0.112 | 0.618
37 | RLIQPLYVQFLN | 0.0572 | 0.629
38 | PSLAASFWVVVG | 0.249 | 0.554
39 | PDKQNHLIKLLN | 0.189 | 0.593
40 | WDKRNHLIKLLN | 0.113 | 0.602
41 | MKILRQKMNHQN | 0.163 | 0.66
42 | CESCGYKFRTNN | 0.327 | 0.681
43 | KKHKTGQKQKIN | 0.0826 | 0.628
44 | LRGAVGGWRLVG | 0.149 | 0.681
45 | PDKSNHLIKLLN | 0.157 | 0.652
46 | LKILRQKMMHQN | 0.232 | 0.62
47 | CTSCGYKFATNN | 0.385 | 0.695
48 | RLIQPLPVQFLL | 0.2 | 0.586

Row | Sequence | protein stability index (Saccharomyces cerevisiae [1]) | protein stability index (Saccharomyces cerevisiae [2])
49 | KKHKKGQKQKTN | 0.472 | 0.619
50 | KKHKKGHKQKIN | 0.111 | 0.592
51 | KSHKKGQKQKIN | 0.119 | 0.6
52 | FSMRWHFRYWVN | 0.0543 | 0.756
53 | FFMRWTFRYWVN | 0.0417 | 0.371
54 | PWKRNHLIKLLN | 0.0786 | 0.606
55 | LVVYLSCVACIT | 0.0143 | 0.0345
56 | LKILRDKMNHQN | 0.232 | 0.677
57 | CTSCGYKFSTNN | 0.684 | 0.713
58 | LVVYLQCVACIN | 0.0274 | 0.0353
59 | DLIQPLPVQFLN | 0.127 | 0.59
60 | LKILRQKMNHQNQ | 0.623 | 0.685
61 | CTSCGYKFRTQN | 0.201 | 0.663
62 | PSLAAIFWRVVG | 0.138 | 0.645
63 | PCKRNHLIKLLN | 0.112 | 0.614
64 | PSLAASFWPVVG | 0.656 | 0.706
65 | LKILRQTMNHQN | 0.224 | 0.677
66 | KYHKKGQKQKIN | 0.0981 | 0.595
67 | GVVYLSCVACIN | 0.0144 | 0.0346
68 | FSMRWTFRMWVN | 0.0197 | 0.31
69 | PSLAASFWRVVS | 0.15 | 0.641
70 | PSLAAVFWRVVG | 0.146 | 0.665
71 | KKHKKGQKQNIN | 0.618 | 0.54
72 | PNLAASFWRVVG | 0.144 | 0.694

Row | Sequence | protein stability index (Saccharomyces cerevisiae [1]) | protein stability index (Saccharomyces cerevisiae [2])
73 | FEMRWTFRYWVN | 0.0443 | 0.437
74 | LKILRQKMNHWN | 0.216 | 0.666
75 | LVVYLYCVACIN | 0.0123 | 0.0269
76 | ARWRVGFWRGAS | 0.551 | 0.666
77 | KFHKKGQKQKIN | 0.139 | 0.576
78 | LKILRQFMNHQN | 0.192 | 0.664
79 | LKILWQKMNHQN | 0.206 | 0.67
80 | FSERWTFRYWVN | 0.122 | 0.604
81 | LKILMQKMNHQN | 0.244 | 0.687
82 | VNGAVGGWRLVG | 0.141 | 0.68
83 | FDMRWTFRYWVN | 0.089 | 0.557
84 | LKILRQKMNHFN | 0.21 | 0.675
85 | FSMRWTFRYPVN | 0.548 | 0.555
86 | PDKRNHDIKLLN | 0.407 | 0.606
87 | PSLAASFWRVVGY | 0.658 | 0.684
88 | FSMRPTFRYWVN | 0.12 | 0.562
89 | PSLAAHFWRVVG | 0.155 | 0.694
90 | FSMRWTFRYWVND | 0.539 | 0.557
91 | LKILRQKKNHQN | 0.312 | 0.678
92 | QTSCGYKFRTNN | 0.206 | 0.673
93 | KKHWKGQKQKIN | 0.112 | 0.594
94 | KKHKKNQKQKIN | 0.217 | 0.585
95 | RLCQPLPVQFLN | 0.0327 | 0.612
96 | LKILRQKMNHQF | 0.255 | 0.678

Row | Sequence | protein stability index (Saccharomyces cerevisiae [1]) | protein stability index (Saccharomyces cerevisiae [2])
97 | VTSCGYKFRTNN | 0.214 | 0.674
98 | LKILRQKMNHGN | 0.47 | 0.672
99 | PSLAACFWRVVG | 0.141 | 0.675
100 | VRGAVGGWKLVG | 0.203 | 0.679
101 | PDKRCHLIKLLN | 0.0642 | 0.596
102 | KKHKKGQKQKIM | 0.179 | 0.609
103 | LKILRQKMNHQNC | 0.606 | 0.661
104 | LVSYLSCVACIN | 0.0799 | 0.252
105 | CTSCGYKFRQNN | 0.497 | 0.69
106 | CTSCYYKFRTNN | 0.199 | 0.639
107 | PDKRNHLIKFLN | 0.112 | 0.583
108 | FSMRWRFRYWVN | 0.0911 | 0.584
109 | LKILTQKMNHQN | 0.276 | 0.688
110 | WRWRVGLWRGAS | 0.186 | 0.764
111 | LKGLRQKMNHQN | 0.196 | 0.669
112 | PSLAASFWRVVD | 0.48 | 0.698
113 | CTSEGYKFRTNN | 0.507 | 0.68
114 | RLIQPLPVQFEN | 0.627 | 0.603
115 | KKHKKGQKQYIN | 0.24 | 0.678
116 | LKILRQKMNHQH | 0.231 | 0.68
117 | LKIWRQKMNHQN | 0.176 | 0.687
